Measured values: article PMC5435868, “Crystal structure of U2 snRNP SF3b components: Hsh49p in complex with Cus1p-binding domain” (RNA, 2017)
Changes are numbered by the printed parent chain.

Experiments:
[1] = biological target: T1, Hsh49p (Saccharomyces cerevisiae) (UniProt Q99181); experiment: fluorescence anisotropy; settings: 20 mM K-Hepes pH 7.5, 125 mM KCl, 1 mM EDTA, 5 mM DTT, 0.01% Igepal, E. coli tRNA (100 ng FA, 500 ng EMSA), 22°C 20 min; EMSA gels at 4°C
T1 sequence: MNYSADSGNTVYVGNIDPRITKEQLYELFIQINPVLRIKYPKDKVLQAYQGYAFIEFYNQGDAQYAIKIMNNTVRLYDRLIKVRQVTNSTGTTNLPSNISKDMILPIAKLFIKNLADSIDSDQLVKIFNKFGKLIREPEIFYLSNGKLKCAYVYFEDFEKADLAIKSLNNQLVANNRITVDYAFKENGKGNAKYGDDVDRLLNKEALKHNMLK

Hsh49p RRM2 = biological target: T2, Hsh49p RRM2 (Saccharomyces cerevisiae, UniProt Q99181 108-185); experiment: fluorescence anisotropy; 20 mM K-Hepes pH 7.5, 125 mM KCl, 1 mM EDTA, 5 mM DTT, 0.01% Igepal, E. coli tRNA (100 ng FA, 500 ng EMSA), 22°C 20 min; EMSA gels at 4°C; settings: protein: recombinant; tags: His-TEV tag (cleaved); label: 3' fluorescein; hairpin
T2 sequence: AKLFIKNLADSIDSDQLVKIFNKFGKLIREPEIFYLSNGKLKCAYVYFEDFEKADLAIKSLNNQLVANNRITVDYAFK

Hsh49p = biological target: T3, Hsh49p (Saccharomyces cerevisiae, UniProt Q99181 1-213); experiment: EMSA; up to 1.5 µM protein, E. coli tRNA; 20 mM K-Hepes pH 7.5, 125 mM KCl, 1 mM EDTA, 5 mM DTT, 0.01% Igepal, E. coli tRNA (100 ng FA, 500 ng EMSA), 22°C 20 min; EMSA gels at 4°C; settings: protein: recombinant, tags: His-TEV tag (cleaved), label: 3' fluorescein
T3 sequence: T1 sequence

Hsh49p;Cus1(290-368)p [2] = biological target: T4, Hsh49p;Cus1(290-368)p (Saccharomyces cerevisiae;Saccharomyces …, UniProt Q99181;Q02554 1-213;290-368, |); experiment: as above; settings: protein: recombinant;recombinant, tags: His-TEV tag (cleaved);none stated, coexpressed, copies: 1;1, label: 3' fluorescein
T4 sequence 1: T1 sequence
T4 sequence 2: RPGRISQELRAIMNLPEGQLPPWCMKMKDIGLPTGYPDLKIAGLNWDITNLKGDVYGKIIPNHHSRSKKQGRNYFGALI

Hsh49p;Cus1(290-368)p [3] = biological target: T4, Hsh49p;Cus1(290-368)p; experiment: fluorescence anisotropy; 20 mM K-Hepes pH 7.5, 125 mM KCl, 1 mM EDTA, 5 mM DTT, 0.01% Igepal, E. coli tRNA (100 ng FA, 500 ng EMSA), 22°C 20 min; EMSA gels at 4°C; settings: protein: recombinant;recombinant; tags: His-TEV tag (cleaved);none stated; coexpressed; copies: 1;1; label: 3' fluorescein; hairpin with single-stranded flanks
Hsh49p;Cus1(290-368)p [4] = biological target: T4, Hsh49p;Cus1(290-368)p; experiment: fluorescence anisotropy; pseudouridines have no large effect; 20 mM K-Hepes pH 7.5, 125 mM KCl, 1 mM EDTA, 5 mM DTT, 0.01% Igepal, E. coli tRNA (100 ng FA, 500 ng EMSA), 22°C 20 min; EMSA gels at 4°C; settings: protein: recombinant;recombinant; tags: His-TEV tag (cleaved);none stated; coexpressed; copies: 1;1; label: 3' fluorescein; hairpin with single-stranded flanks
[5] = biological target: T5, Hsh49p Tyr152Ala-Tyr154Ala (RRM2 mutant);Cus1(290-350)p (Saccharomyces cerevisiae;Saccharomyces …, UniProt Q99181;Q02554 1-213;290-350, Y152A;Y154A|); experiment: fluorescence anisotropy; mutation has no effect; 20 mM K-Hepes pH 7.5, 125 mM KCl, 1 mM EDTA, 5 mM DTT, 0.01% Igepal, E. coli tRNA (100 ng FA, 500 ng EMSA), 22°C 20 min; EMSA gels at 4°C; settings: protein: recombinant;recombinant; tags: His-TEV tag (cleaved);none stated; coexpressed; copies: 1;1; label: 3' fluorescein; hairpin with 5' single strand
T5 sequence 1: T1 sequence with Y152A, Y154A
T5 sequence 2: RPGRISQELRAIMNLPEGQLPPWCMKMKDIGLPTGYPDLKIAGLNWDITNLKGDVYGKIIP

[6] = biological target: T6, Hsh49p Tyr52Ala-Phe54Ala (RRM1 mutant);Cus1(290-350)p (Saccharomyces cerevisiae;Saccharomyces …, UniProt Q99181;Q02554 1-213;290-350, Y52A;F54A|); experiment: fluorescence anisotropy; 20 mM K-Hepes pH 7.5, 125 mM KCl, 1 mM EDTA, 5 mM DTT, 0.01% Igepal, E. coli tRNA (100 ng FA, 500 ng EMSA), 22°C 20 min; EMSA gels at 4°C; settings: protein: recombinant;recombinant; tags: His-TEV tag (cleaved);none stated; coexpressed; copies: 1;1; label: 3' fluorescein; hairpin with 5' single strand
T6 sequence 1: T1 sequence with Y52A, F54A
T6 sequence 2: T5 sequence 2

Hsh49p;Cus1(290-368)p [7] = biological target: T4, Hsh49p;Cus1(290-368)p; experiment: fluorescence anisotropy; similar to RRM1-Cus1(290-368)p; 20 mM K-Hepes pH 7.5, 125 mM KCl, 1 mM EDTA, 5 mM DTT, 0.01% Igepal, E. coli tRNA (100 ng FA, 500 ng EMSA), 22°C 20 min; EMSA gels at 4°C; settings: protein: recombinant;recombinant; tags: His-TEV tag (cleaved);none stated; coexpressed; copies: 1;1; label: 3' fluorescein; hairpin with 5' single strand
HisHsh49p = biological target: T7, HisHsh49p (S. cerevisiae, UniProt Q99181 1-213); experiment: pull-down; purified HisHsh49p–Cus1 complex (40 µM) cut with trypsin (10 µg/mL, 10 min, 22°C), His-tagged Hsh49p held on Ni-NTA resin; fragments told by N-terminal sequencing and MALDI-TOF; settings: both partners purified
T7 construct: Hsh49p, S. cerevisiae; Held on Ni-NTA resin by its His tag after the trypsin digest; also called His-tagged Hsh49p; source: E. coli, coexpressed with Cus1(121-392)p, purified as complex; not shown: His6, N-terminal, kept
T7 sequence (looked up): T1 sequence

**Q.** Which binding signal (fold weaker than Hsh49p-Cus1(290-368)p) [1] does the source give for “ACGAAUCUCUUUGCCUUUUGGCUUAGAUCAAGUGUAGUAUCUGUUCU [5'SLIBPRS]” here?
**A.** Its binding signal (fold weaker than Hsh49p-Cus1(290-368)p) is 10.

B1: SLIIb (structured_RNA)
RNA: UGACCUCAAUGAGGCUCA
**Q.** Does B1 bind (Hsh49p RRM2)?
**A.** Result: no binding

**Q.** Does B1 bind (Hsh49p; hairpin)?
**A.** Result: no binding

**Q.** Does B1 bind (Hsh49p;Cus1(290-368)p [2]; hairpin)?
**A.** Result: no binding

B2: 5'SLIBPRS (structured_RNA)
RNA: ACGAAUCUCUUUGCCUUUUGGCUUAGAUCAAGUGUAGUAUCUGUUCU
**Q.** With B2 as the molecule, how does the binding signal (Hsh49p;Cus1(290-368)p [3]) read?
**A.** The binding signal was ~10 fold stronger than Hsh49p alone.

B3: 5'SLIBPRS-pseu (structured_RNA)
RNA: B2 RNA
modifications: pseudouridines around the BPRS (positions in figure)
**Q.** Does B3 bind (Hsh49p;Cus1(290-368)p [4])?
**A.** Result: binds

B4: SLI (structured_RNA)
RNA: UCUUUGCCUUUUGGCUUAGA
**Q.** What does the source list for B4?
**A.** binding result (Hsh49p; hairpin): no binding; binding result (Hsh49p;Cus1(290-368)p [2]; hairpin): no binding

B5: SLIIa (structured_RNA)
RNA: UUUCAGUGUAACAACUGAAA
**Q.** Does B5 bind (Hsh49p RRM2)?
**A.** Result: no binding

**Q.** Does B5 bind (Hsh49p; hairpin)?
**A.** Result: no binding

**Q.** Does B5 bind (Hsh49p;Cus1(290-368)p [2]; hairpin)?
**A.** Result: no binding

B6: 5'SLI (structured_RNA)
RNA: ACGAAUCUCUUUGCCUUUUGGCUUAGA
**Q.** Which results are given for B6?
**A.** binding result (Hsh49p; hairpin with 5' single strand): no binding; binding result [5]: binds; binding signal [6]: ~10 fold lower affinity than wild type; binding result (Hsh49p;Cus1(290-368)p [7]): binds

B7: BPRS (ssRNA)
RNA: UCAAGUGUAGUAUCUGUUCU
**Q.** Does B7 bind (Hsh49p)?
**A.** Result: no binding

**Q.** Does B7 bind (Hsh49p;Cus1(290-368)p [2])?
**A.** Result: no binding

B8: Cus1p fragment comprising residues 285-355 (domain or fragment, S. cerevisiae, UniProt Q02554 285-355, looked up)
chain: MVDHKRPGRISQELRAIMNLPEGQLPPWCMKMKDIGLPTGYPDLKIAGLNWDITNLKGDVYGKIIPNHHSR
notes: also called digested Cus1p fragment; source: trypsin digest of the purified HisHsh49p-Cus1 complex made in E. coli
**Q.** Does B8 bind (HisHsh49p)?
**A.** Result: binds
